Data published in article doi:10.1101/859132 (bioRxiv, 2019).

Tests used:
Assay in all cases: pull-down
[1] = target: T1, Maf1-id (Maf1 Δ64-194) (S. cerevisiae, UniProt P41910 1-395, Δ64-194)
T1 sequence (looked up): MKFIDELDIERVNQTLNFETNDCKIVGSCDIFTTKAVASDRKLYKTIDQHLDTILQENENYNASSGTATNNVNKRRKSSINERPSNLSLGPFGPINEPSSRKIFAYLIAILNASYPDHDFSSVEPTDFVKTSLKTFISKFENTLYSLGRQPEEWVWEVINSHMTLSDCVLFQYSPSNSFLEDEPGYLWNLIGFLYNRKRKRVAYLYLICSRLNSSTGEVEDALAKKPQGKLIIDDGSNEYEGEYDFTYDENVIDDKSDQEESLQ

[2] = target: T2, Maf1-id D248A/D250A (S. cerevisiae, UniProt P41910 1-395, Δ64-194 | D248A | D250A)
T2 sequence (looked up): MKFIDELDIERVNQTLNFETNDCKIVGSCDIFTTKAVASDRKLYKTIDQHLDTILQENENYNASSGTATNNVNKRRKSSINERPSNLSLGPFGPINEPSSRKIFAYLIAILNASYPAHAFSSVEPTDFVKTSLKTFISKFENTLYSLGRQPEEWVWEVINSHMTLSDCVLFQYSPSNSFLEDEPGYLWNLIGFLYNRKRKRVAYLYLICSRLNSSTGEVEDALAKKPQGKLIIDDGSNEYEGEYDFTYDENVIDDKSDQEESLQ

[3] = target: T3, Maf1-id T33E/T34E (S. cerevisiae, UniProt P41910 1-395, Δ64-194 | T33E | T34E)
T3 sequence (looked up): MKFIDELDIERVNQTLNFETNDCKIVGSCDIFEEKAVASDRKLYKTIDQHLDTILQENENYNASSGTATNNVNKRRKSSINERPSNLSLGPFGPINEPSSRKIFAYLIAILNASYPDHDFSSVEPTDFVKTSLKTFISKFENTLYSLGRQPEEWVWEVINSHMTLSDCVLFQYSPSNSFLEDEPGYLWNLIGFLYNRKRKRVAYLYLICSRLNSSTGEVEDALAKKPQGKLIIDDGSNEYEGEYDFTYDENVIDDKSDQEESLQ

[4] = target: T4, Maf1-id L318S/W319S (S. cerevisiae, UniProt P41910 1-395, Δ64-194 | L318S | W319S)
T4 sequence (looked up): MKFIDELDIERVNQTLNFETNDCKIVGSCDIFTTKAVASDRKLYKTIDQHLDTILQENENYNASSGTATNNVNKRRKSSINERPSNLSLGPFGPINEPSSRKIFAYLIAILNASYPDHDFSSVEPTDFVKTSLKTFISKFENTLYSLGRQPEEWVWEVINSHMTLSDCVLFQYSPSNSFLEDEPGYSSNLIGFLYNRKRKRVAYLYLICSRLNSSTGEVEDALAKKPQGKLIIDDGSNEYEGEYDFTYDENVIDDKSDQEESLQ

Measured: binding result

B1: C34 1-156 (the two N-terminal C34 WH domains), His-tagged (domain or fragment, S. cerevisiae, UniProt P32910 1-156, looked up)
chain: MSGMIENGLQLSDNAKTLHSQMMSKGIGALFTQQELQKQMGIGSLTDLMSIVQELLDKNLIKLVKQNDELKFQGVLESEAQKKATMSAEEALVYSYIEASGREGIWSKTIKARTNLHQHVVLKCLKSLESQRYVKSVKSVKFPTRKIYMLYSLQPS
binds: all assays above
